The values that follow come from patent US12564623B2, “Methods and compositions for treating cancer” (The University of Chicago, priority 2017, dated 2026).

In this test the test system is MDA-MB-231, A549, MEL888, M1, 4195, E0771, LLC1, B16F10 tumors. As to the kind of experiment: Tumor growth in xenograft, PDX and syngeneic models. It counts as in vivo, mice. The conditions noted are these: 11.6 μg intratumorally once/day for 5 days. Here is the method: MDA-MB-231, A549, or MEL888 cells (xenograft model) were injected into athymic nude mice; M1 or 4195 tumors (TNBC PDX models) were propagated in SCID mice; and E0771, LLC1, or B16F10 cells (syngeneic models) were injected into C57BL/6 mice. Once tumors reached ˜100 mm^3, ELANE (11.6 μg), or PMSF-ELANE (11.6 μg) were delivered intratumorally once/day for 5 days. n=8-15 mice/group. Tumor volume was assessed by calipers. Kaplan-Meier curve was plotted and the logrank test (Mentel-Cox method) was used for mouse survival analysis. Day 0 refers to the first treatment day. End point of survival is defined as tumor volume >1000 mm^3. (FIG. 15)

B1: neutrophil elastase (protein, listed as Homo sapiens)
chain: MTLGRRLACLFLACVLPALLLGGTALASEIVGGRRARPHAWPFMVSLQLRGGHFCGATLIAPNFVMSAAHCVANVNVRAVRVVLGAHNLSRREPTRQVFAVQRIFENGYDPVNLLNDIVILQLNGSATINANVQVAQLPAQGRRLGNGVQCLAMGWGLLGRNRGIASVLQELNVTVVTSLCRRSNVCTLVRGRQAGVCFGDSGSPLVCNGLIHGIASFVRGGCASGLYPDAFAPVAQFVNWIDSIIQRSEDNPCPHPRDPDPASRTH
notes: purified native ELANE
For B1, the tumor growth result is on record as “attenuates tumor growth in many cancer models”.
